Assay results: patent US20140348834A1 (published 2014)

T1: rat IL-17A (rat, UniProt Q61453 18-150, limits assumed)
T1 sequence (looked up): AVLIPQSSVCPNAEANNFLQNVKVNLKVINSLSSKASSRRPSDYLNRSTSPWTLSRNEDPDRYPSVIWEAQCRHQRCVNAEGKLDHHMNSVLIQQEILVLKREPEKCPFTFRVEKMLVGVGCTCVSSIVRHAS

T2: rat IL-17A (rat, UniProt Q61453 18-150, limits assumed)
T2 sequence (looked up): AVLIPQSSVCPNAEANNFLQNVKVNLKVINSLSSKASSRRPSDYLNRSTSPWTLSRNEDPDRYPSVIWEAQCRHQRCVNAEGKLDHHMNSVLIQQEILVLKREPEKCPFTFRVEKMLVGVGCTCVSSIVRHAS

T3: mouse IL-17A (mouse, UniProt Q62386 26-158, limits assumed)
T3 construct: also called MuIL-17A; murine IL17A HIS
T3 sequence (looked up): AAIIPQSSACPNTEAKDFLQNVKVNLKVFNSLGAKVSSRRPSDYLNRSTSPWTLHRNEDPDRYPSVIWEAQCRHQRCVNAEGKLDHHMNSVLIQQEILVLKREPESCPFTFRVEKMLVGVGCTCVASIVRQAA


Key:
human IL-17A [1] = target: T4, human IL-17A (human, UniProt Q16552 24-155); test: cell-based or functional assay
T4 sequence (Q16552 24-155 limits assumed): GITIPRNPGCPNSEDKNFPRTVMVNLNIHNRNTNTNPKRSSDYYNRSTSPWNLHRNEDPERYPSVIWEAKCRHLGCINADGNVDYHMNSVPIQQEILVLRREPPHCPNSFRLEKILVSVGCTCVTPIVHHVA

human IL-17A/F [2] = target: human IL-17A/F (human, UniProt Q16552 24-155; Q96PD4 31-163); test: cell-based or functional assay
Target sequence in this assay (Q16552 24-155 limits assumed, chain 1 of 2): as the sequence (Q16552 24-155 limits assumed) above
Target sequence in this assay (Q96PD4 31-163 limits assumed, chain 2 of 2): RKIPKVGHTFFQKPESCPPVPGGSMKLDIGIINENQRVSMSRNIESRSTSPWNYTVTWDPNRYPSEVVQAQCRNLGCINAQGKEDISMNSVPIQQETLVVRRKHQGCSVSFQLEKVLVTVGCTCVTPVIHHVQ

[3] = target: cynomolgous monkey (cyno) IL-17A (cynomolgus monkey, UniProt A0A2K5TTB0 24-155); test: cell-based or functional assay
cynomolgous monkey (cyno) IL-17A, sequence (A0A2K5TTB0 entry or part of it): as the sequence (Q16552 24-155 limits assumed) above, with T3A, P8S, N34S, I77V, N78K, P104R counted along it

rat IL-17A [4] = target: T1, rat IL-17A; test: cell-based or functional assay
human IL-17A [5] = target: T4, human IL-17A; test: ELISA, captured antibody, serially diluted biotin-IL-17 (Example 1.5.1)
Protocol: The following protocol is used to characterize the binding of IL-17 antibodies to human IL-17 by enzyme-linked immunosorbent assay (ELISA). […] 1. Coat ELISA plate with 50 μl per well of Goat anti Mouse IgG-Fc at 2 ug/ml, overnight at 4° C. […] 2. Wash plate 3×PBS/Tween. […] 3. Add 50 μl Mab diluted to 1 μg/ml in PBS/0.1% BSA to appropriate wells. Incubate 1 hr at room temperature (RT). […] 4. Wash plate 3× with PBS/Tween. […] 5. Add 50 μl of serial diluted biotin-IL17 (human IL-17, IL-17A/F, cyno IL-17) to appropriate wells. Incubate 1 hr at room temperature (RT). […] 6. Wash plate 3× with PBS/Tween. […] 7. […] Incubate 1 hr at RT. […] 8. Wash plate 3× with PBS/Tween. […] 9. […] 10. Stop reaction with 50 μl 2N H₂SO₄. […] Read absorbance at 450 nm.

human IL-17A [6] = target: T5, human IL-17A (human, UniProt Q16552 24-155); test: SPR Biacore, captured binder
T5 construct: Purified recombinant; biotinylated in the ELISA; also called HuIL-17A; Hu IL-17A
T5 sequence (Q16552 24-155 limits assumed): as the sequence (Q16552 24-155 limits assumed) above
Protocol: (§1) The binding of antibodies to purified recombinant human, cyno, rat, mouse, rabbit IL-17 and human IL-17A/F were determined by surface plasmon resonance-based measurements with a Biacore® 3000 instrument (Biacore® AB, Uppsala, Sweden) using running HBS-EP (10 mM HEPES [pH 7.4], 150 mM NaCl, 3 mM EDTA, and 0.005% surfactant P20) at 25° C. […] Approximately 5000 RU of goat anti-mouse or anti-human IgG (Fcγ) fragment specific polyclonal antibody (Pierce Biotechnology Inc, Rockford, Ill.) diluted in 10 mM sodium acetate (pH 4.5) was directly immobilized across a CM5 research grade biosensor chip using a standard amine coupling kit according to manufacturer's instructions and procedures at 25 μg/ml. Unreacted moieties on the biosensor surface were blocked with ethanolamine. Modified carboxymethyl dextran surface in flowcell 2 and 4 was used as a reaction surface. Unmodified carboxymethyl dextran without goat anti-mouse or anti-human IgG in flow cell 1 and 3 was used as the reference surface. For kinetic analysis, rate equations derived from the 1:1 Langmuir binding model were fitted simultaneously to association and dissociation phases of all eight injections (using global fit analysis) with the use of Biaevaluation 4.0.1 software. Purified antibodies were diluted in HEPES-buffered saline for capture across goat anti-mouse or anti-human IgG specific reaction surfaces. Antibodies to be captured as a ligand (25 μg/ml) were injected over reaction matrices at a flow rate of 5 μl/min. The association and dissociation rate constants, kon (unit M-1s-1) and koff (unit s-1) were determined under a continuous flow rate of 25 μl/min. Rate constants were derived by making kinetic binding measurements at ten different antigen concentrations ranging from 10 nM to 200 nM. The equilibrium dissociation constant (unit M) of the reaction between antibodies and recombinant purified IL-17 antigens was then calculated from the kinetic rate constants by the following formula: KD=koff/kon. Binding was recorded as a function of time and kinetic rate constants are calculated. In this assay, on-rates as fast as 10⁶ M⁻¹ s⁻¹ and off-rates as slow as 10⁻⁶ s⁻¹ can be measured.

human IL-17A/F [7] = target: T6, human IL-17A/F (human, UniProt Q16552 24-155; Q96PD4 31-163); test: SPR Biacore, captured binder
T6 construct: Heterodimer of IL-17A and IL-17F, purified recombinant; also called HuIL-17A/F; Hu IL-17A/F
T6 sequence (Q16552 24-155 limits assumed, chain 1 of 2): as the sequence (Q16552 24-155 limits assumed) above
T6 sequence (Q96PD4 31-163 limits assumed, chain 2 of 2): as the sequence (Q96PD4 31-163 limits assumed, chain 2 of 2) above
Protocol: as §1

cyno IL-17A = cyno IL-17A (cynomolgus monkey, UniProt A0A2K5TTB0 24-155); test: SPR Biacore, captured binder
cyno IL-17A, sequence (A0A2K5TTB0 entry or part of it): as the sequence (Q16552 24-155 limits assumed) above, with T3A, P8S, N34S, I77V, N78K, P104R counted along it
Protocol: as §1

rat IL-17A [8] = target: T2, rat IL-17A; test: SPR Biacore, captured binder
Protocol: as §1

mouse IL-17A = target: T3, mouse IL-17A; test: SPR Biacore, captured binder
Protocol: as §1

rabbit IL-17A = target: T7, rabbit IL-17A (rabbit); test: SPR Biacore, captured binder
T7 construct: also called RabIL-17A
Protocol: as §1

| Binder | Potency (pM), IL-17-driven IL-6 production in HS27 cells (human IL-17A [1]) | Potency (pM), IL-17-driven IL-6 production in HS27 cells (human IL-17A/F [2]) | Potency (pM), IL-17-driven IL-6 production in HS27 cells [3] | Potency (pM), IL-17 and TNF-induced IL-6 secretion from NIH3T3 cells (rat IL-17A [4]) | EC50 (human IL-17A [5]) | Kd (human IL-17A [6]) | koff (human IL-17A [6]) | kon (human IL-17A [6]) | Kd (human IL-17A/F [7]) | koff (human IL-17A/F [7]) | kon (human IL-17A/F [7]) | Kd (cyno IL-17A) | koff (cyno IL-17A) | kon (cyno IL-17A) | Kd (rat IL-17A [8]) | koff (rat IL-17A [8]) | kon (rat IL-17A [8]) | Kd (mouse IL-17A) | koff (mouse IL-17A) | kon (mouse IL-17A) | other results |
| --- | --- | --- | --- | --- | --- | --- | --- | --- | --- | --- | --- | --- | --- | --- | --- | --- | --- | --- | --- | --- | --- |
| IL17-B6-11 (antibody, V domains shown) VH: EVQLVQSGAEVKKPGSSVKVSCKASGGSFLSYGFSWVRQAPGQGLEWMGGITPFFGFADYAQKFQGRVTITADESTTTAYMELSGLTSDDTAVYYCAREPNDFWNGYYTTHHFDYWGQGTTVTVSS VL: DVVMTQSPDFQSVTPKEKVTITCRASQNIGSALHWYQQKPDQSPKLLIKYASQSISGVPSRFSGSGSGTDFTLTINGLEAEDAGTYYCHQSTSLPHTFGQGTKLDIKR | 20 pM | 71 pM | 33 pM | 6100 pM | 58 pM |  |  |  |  |  |  |  |  |  |  |  |  |  |  |  |  |
| IL17-B6-16 (antibody, V domains shown, also called pJP247 B6.1 #16VH / pJP248 B6.1 #16Vk) VH: EVQLVQSGAEVKMPGSSLKISCKASGGSFRGYGISWVRQAPGQGLEWMGGITPFFGWADYAQKFQGRVTITADESTTTAYMELSGLTSDDTAVYYCARDPNEFWNGYYDTHHFDYWGQGTTVTVSS VL: EIVLTQSPDFQSVTPKEKVTITCRASQDIGSALHWYQQKPDQSPKLLIKYASHSVSGVPSRFSGSGSGTDFTLTINGLEAEDAGTYYCHQSDILPHTFGPGTKVDIK | 26 pM | 114 pM | 13 pM | 167 pM | 160 pM |  |  |  |  |  |  |  |  |  |  |  |  |  |  |  |  |
| IL17-B6-5 (antibody, V domains shown, also called pJP243 B6.1 #5VH / pJP244 B6.1 #5VK) VH: EVQLVQSGAEVKKPGESVKISCKASGGSFRSYGISWVRQAPGQGLEWMGGITHFFGITDYAQKFQGRVTITADESTTTAYMELSGLTSDDTAVYYCAREPNDFWNGYYDTHDFDSWGQGTTVTVSS VL: EIVLTQSPDFQSVTPKEKVTITCRASQNIGSELHWYQQKPDQSPKLLIKYASHSISGVPSRFSGSGSGTDFTLTINGLEAEDAATYYCHQSDTLPHTFGQGTKVDIK |  |  |  |  |  | 3.18 pM | 2.29e-05 s⁻¹ | 7.2e+06 M⁻¹ s⁻¹ | 2.22 pM | 2.95e-05 s⁻¹ | 1.33e+07 M⁻¹ s⁻¹ | 5.39 pM | 6.52e-05 s⁻¹ | 1.21e+07 M⁻¹ s⁻¹ | 9.05 pM | 5.54e-05 s⁻¹ | 6.12e+06 M⁻¹ s⁻¹ | 39.5 pM | 0.000102 s⁻¹ | 2.58e+06 M⁻¹ s⁻¹ | Kd (rabbit IL-17A): 3.17 pM; koff (rabbit IL-17A): 2.23e-05 s⁻¹; kon (rabbit IL-17A): 7.03e+06 M⁻¹ s⁻¹ |
| IL17-B6-17 (antibody, V domains shown) VH: EVQLVQSGAEVKKPGSSVKVSCKASGGSFGGYGIGWVRQAPGQGLEWMGGITPFFGFADYAQKFQGRVTITADESTTTAYMELSGLTSDDTAVYYCARDPNEFWNGYYSTHDFDSWGQGTTVTVSS VL: EIVLTQSPDFQSVTPKEKVTITCRASQDIGSELHWYQQKPDQPPKLLIKYASHSTSGVPSRFSGSGSGTDFTLTINGLEAEDAGTYYCHQTDSLPYTFGPGTKVDIK |  |  |  |  |  | 0.785 pM | 3.1e-06 s⁻¹ | 3.95e+06 M⁻¹ s⁻¹ | 1.7 pM | 1.23e-05 s⁻¹ | 7.23e+06 M⁻¹ s⁻¹ | 1.03 pM | 1.05e-05 s⁻¹ | 1.02e+07 M⁻¹ s⁻¹ | 9.64 pM | 5.91e-05 s⁻¹ | 6.13e+06 M⁻¹ s⁻¹ | 113 pM | 0.000169 s⁻¹ | 1.49e+06 M⁻¹ s⁻¹ | Kd (rabbit IL-17A): 3.51 pM; koff (rabbit IL-17A): 3.36e-05 s⁻¹; kon (rabbit IL-17A): 9.58e+06 M⁻¹ s⁻¹ |
